B1: HDR002C04 (antibody, human IgG1, lambda, V domains shown)
VH: QVQLVQSGAEVKKPGASVKVSCKASGYTFTSYYMHWVRQAPGQGLEWMGIINPSGGSTSYAQKFQGRVTMTRDTSTSTVYMELSSLRSEDTAVYYCAKGSVDTAMVPGVDYWGQGTLVTVSS
VL: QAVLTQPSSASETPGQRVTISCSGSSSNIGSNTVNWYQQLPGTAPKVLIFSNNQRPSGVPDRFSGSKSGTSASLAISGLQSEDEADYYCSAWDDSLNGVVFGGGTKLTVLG
notes: also called 抗体HDR002C04; 抗Claudin18.2抗体
B2: HDR002C06 (antibody, human IgG1, kappa, V domains shown)
VH: QVQLQESGPGLVKPSQTLSLTCTVSGGSISSGGYYWSWIRQHPGKGLEWIGYIYYSGSTYYNPSLKSRVTISVDTSKNQFSLKLSSVTPDDTAKYYCARIVASVGGVDVWGQGTTVTVSS
VL: DIQLTQSPSSVSASVGDRVTITCRASQGISSWLAWYQQKPGKAPKLLIYAASSLQSGVPSRFSGSGSGTDFTLTISSLQPEDFATYYCQQANSFPLTFGGGTKVEIKR
notes: also called 抗体HDR002C06; 抗Claudin18.2抗体

What was measured:
[1] = target: T1, 人Claudin18.1 (human Claudin18.1) (human, UniProt P56856 1-261); experiment: flow cytometry (FACS) on Claudin18.1-positive HEK293 cells, FITC goat anti-human IgG
T1 construct: whole, on cells; also called CLD18.1; 密蛋白18.1

[2] = target: T2, 人Claudin18.2蛋白 (human Claudin18.2) (human, UniProt P56856-2 1-261); experiment: flow cytometry (FACS) on Claudin18.2-positive HEK293 cells, 0.1-10 μg/mL, FITC goat anti-human IgG
T2 construct: whole, on cells; also called CLD18.2; 密蛋白18.2

Binder	binding result [1]	binding result [2]
B1	no binding (tested: 0.1-10 μg/mL tested)	binds
B2	no binding (tested: 0.1-10 μg/mL tested)	binds

Reference: patent CN113735974A (HANGZHOU BANGSHUN PHARMACEUTICAL CO LTD, dated 2021)
